{"source": "paper PMC11229316", "about": "“Insights into the molecular mechanism of ParABS system in chromosome partition by HpParA and HpParB” (Nucleic Acids Research, 2024)", "binders": {"B1": {"name": "Cy3-parS 24-bp (dsDNA)", "DNA 1": "AGGGTGTTCCACGTGAAACAGGGA", "DNA 2": "TCCCTGTTTCACGTGGAACACCCT"}, "B2": {"name": "Cy5/Cy3-labeled nsDNA 24-bp (dsDNA)", "DNA 1": "TCCTATGAATTGCTATGGCAAGCG", "DNA 2": "CGCTTGCCATAGCAATTCATAGGA"}, "B3": {"name": "HpParBN10, N-terminal peptide of HpParB (residues 1-10) (peptide)", "peptide": "MAKNKVLGRG", "modifications": "not fully specified (N-terminus); also: labeled with 5-FAM-Ahx fluorophore, site not given here", "notes": "residues 1-10 of Helicobacter pylori Spo0J/ParB (HP1138); The methods describe only the 5-FAM-Ahx-labelled peptide; also called HpSpo0JN10; source: synthetic peptide, bought: MDBio, inc"}, "B4": {"name": "nsDNA 24-bp (dsDNA)", "DNA 1": "TCCTATGAATTGCTATGGCAAGCG", "DNA 2": "CGCTTGCCATAGCAATTCATAGGA"}}, "key": {"HpParB (HpSpo0J) [1]": {"biological_target": "T1, HpParB (HpSpo0J) (Helicobacter pylori, UniProt O25758 1-290)", "T1 sequence": "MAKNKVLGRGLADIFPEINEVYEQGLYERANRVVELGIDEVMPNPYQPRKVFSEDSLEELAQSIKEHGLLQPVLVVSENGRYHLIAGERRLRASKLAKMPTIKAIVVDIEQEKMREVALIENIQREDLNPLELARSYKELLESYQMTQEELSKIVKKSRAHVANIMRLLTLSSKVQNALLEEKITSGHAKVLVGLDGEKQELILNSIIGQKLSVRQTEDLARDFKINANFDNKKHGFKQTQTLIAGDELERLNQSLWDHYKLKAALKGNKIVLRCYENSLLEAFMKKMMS", "test": "fluorescence polarization; no CTP, 5 mM Mg2+; FP: 20 mM Tris-HCl pH 8.0, 175 mM NaCl, 5 mM MgCl2, 10% glycerol, 1 mM ATP or CTP, 5 nM DNA, room temperature; EMSA: 20 mM Tris-HCl pH 8.0, 50 mM NaCl, 11 mM imidazole, 5 mM MgCl2, 10% glycerol, +/- 2 mM CTP, 37 C, gel at 4 C", "conditions": "protein: recombinant; tags: His (Ni-NTA purified); chain copies: 2; label: 5' Cy3 (FP dye assignment inferred from EMSA); blunt"}, "HpParB (HpSpo0J) [2]": {"biological_target": "T1, HpParB (HpSpo0J)", "test": "fluorescence polarization; 1 mM CTP, 5 mM Mg2+; FP: 20 mM Tris-HCl pH 8.0, 175 mM NaCl, 5 mM MgCl2, 10% glycerol, 1 mM ATP or CTP, 5 nM DNA, room temperature; EMSA: 20 mM Tris-HCl pH 8.0, 50 mM NaCl, 11 mM imidazole, 5 mM MgCl2, 10% glycerol, +/- 2 mM CTP, 37 C, gel at 4 C", "conditions": "protein: recombinant, tags: His (Ni-NTA purified), chain copies: 2, blunt"}, "[3]": {"biological_target": "T2, HpParA (HpSoj);HpParB (HpSpo0J) (Helicobacter pylori;Helicobacter pylori, UniProt O25759;O25758 1-264;1-290, |)", "T2 sequence 1": "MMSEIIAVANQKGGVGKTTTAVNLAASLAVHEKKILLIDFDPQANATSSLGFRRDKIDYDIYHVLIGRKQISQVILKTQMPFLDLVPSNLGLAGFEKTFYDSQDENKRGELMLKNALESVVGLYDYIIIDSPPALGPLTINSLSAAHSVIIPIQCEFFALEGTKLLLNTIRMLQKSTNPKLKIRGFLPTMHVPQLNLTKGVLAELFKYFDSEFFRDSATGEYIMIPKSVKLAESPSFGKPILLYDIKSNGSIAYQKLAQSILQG", "T2 sequence 2": "T1 sequence", "test": "EMSA; no CTP; NAC1 with Cy3-parS (N3) also in complex; FP: 20 mM Tris-HCl pH 8.0, 175 mM NaCl, 5 mM MgCl2, 10% glycerol, 1 mM ATP or CTP, 5 nM DNA, room temperature; EMSA: 20 mM Tris-HCl pH 8.0, 50 mM NaCl, 11 mM imidazole, 5 mM MgCl2, 10% glycerol, +/- 2 mM CTP, 37 C, gel at 4 C", "conditions": "protein: recombinant;recombinant; tags: His (Ni-NTA purified); label: 5' Cy5 in EMSA; FP label Cy3 or Cy5 not specified per DNA; blunt"}, "HpParA (HpSoj)": {"biological_target": "T3, HpParA (HpSoj) (Helicobacter pylori, UniProt O25759 1-264)", "T3 sequence": "T2 sequence 1", "test": "fluorescence polarization; 1 mM ATP, 5 mM Mg2+; FP: 20 mM Tris-HCl pH 8.0, 175 mM NaCl, 5 mM MgCl2, 10% glycerol, 1 mM ATP or CTP, 5 nM DNA, room temperature; EMSA: 20 mM Tris-HCl pH 8.0, 50 mM NaCl, 11 mM imidazole, 5 mM MgCl2, 10% glycerol, +/- 2 mM CTP, 37 C, gel at 4 C", "conditions": "protein: recombinant; tags: His (Ni-NTA purified); label: 5' Cy5 in EMSA; FP label Cy3 or Cy5 not specified per DNA; blunt"}, "HpParAD41A": {"biological_target": "HpParAD41A (Helicobacter pylori, UniProt O25759 1-264, D41A)", "test": "fluorescence polarization; 1 mM ATP, 5 mM Mg2+; FP: 20 mM Tris-HCl pH 8.0, 175 mM NaCl, 5 mM MgCl2, 10% glycerol, 1 mM ATP or CTP, 5 nM DNA, room temperature; EMSA: 20 mM Tris-HCl pH 8.0, 50 mM NaCl, 11 mM imidazole, 5 mM MgCl2, 10% glycerol, +/- 2 mM CTP, 37 C, gel at 4 C", "conditions": "protein: recombinant; tags: His (Ni-NTA purified); label: 5' Cy5 in EMSA; FP label Cy3 or Cy5 not specified per DNA; blunt"}, "[4]": {"biological_target": "HpParAD41A;HpParB (HpSpo0J) (Helicobacter pylori;Helicobacter pylori, UniProt O25759;O25758 1-264;1-290, D41A|)", "test": "EMSA; no CTP; NAC3 with Cy3-parS (N3) also in complex; FP: 20 mM Tris-HCl pH 8.0, 175 mM NaCl, 5 mM MgCl2, 10% glycerol, 1 mM ATP or CTP, 5 nM DNA, room temperature; EMSA: 20 mM Tris-HCl pH 8.0, 50 mM NaCl, 11 mM imidazole, 5 mM MgCl2, 10% glycerol, +/- 2 mM CTP, 37 C, gel at 4 C", "conditions": "protein: recombinant;recombinant; tags: His (Ni-NTA purified); label: 5' Cy5 in EMSA; FP label Cy3 or Cy5 not specified per DNA; blunt"}, "[5]": {"biological_target": "T4, HpParAD41A, ATP hydrolysis-deficient mutant of Helicobacter pylori ParA (Helicobacter pylori, UniProt O25759, D41A)", "T4 construct": "also called HpSojD41A; source: recombinant, grown in Luria-Bertani medium, induced with IPTG, purified as HpParA (Ni-NTA, SEC)", "T4 sequence": "T2 sequence 1 with D41A", "test": "MST; 5-FAM-Ahx-labeled peptide (200 nM) mixed 1:1 with 16 serial dilutions of unlabeled HpParA or HpParAD41A (300 μM); 20 mM Tris-HCl pH 8.0, 5% glycerol, 200 mM NaCl, 50 mM imidazole, 5 mM MgCl2, 0.05% Tween20; 25°C; the results speak of ParA-DNA complexes", "conditions": "both partners purified"}, "Ct-HpParB": {"biological_target": "T5, Ct-HpParB (Helicobacter pylori, UniProt O25758 1-240)", "T5 sequence": "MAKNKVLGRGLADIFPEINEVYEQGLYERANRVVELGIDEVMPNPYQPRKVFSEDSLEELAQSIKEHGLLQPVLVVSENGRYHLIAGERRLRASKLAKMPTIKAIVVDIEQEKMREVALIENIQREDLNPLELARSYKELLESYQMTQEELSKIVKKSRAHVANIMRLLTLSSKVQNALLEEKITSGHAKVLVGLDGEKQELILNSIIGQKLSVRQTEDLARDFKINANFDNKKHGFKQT", "test": "EMSA; no CTP; FP: 20 mM Tris-HCl pH 8.0, 175 mM NaCl, 5 mM MgCl2, 10% glycerol, 1 mM ATP or CTP, 5 nM DNA, room temperature; EMSA: 20 mM Tris-HCl pH 8.0, 50 mM NaCl, 11 mM imidazole, 5 mM MgCl2, 10% glycerol, +/- 2 mM CTP, 37 C, gel at 4 C", "conditions": "protein: recombinant; chain copies: 2; label: none (GelRed stain); blunt"}}, "note": "Numbering of substitutions follows the chain as printed. No end group written: not given here.", "data": [{"binder": "B1", "values": [{"measurement": "Kd", "setting": "HpParB (HpSpo0J) [1]", "value": "63.4 ± 5.6", "unit": "nM"}, {"measurement": "Kd", "setting": "HpParB (HpSpo0J) [2]; label: 5' Cy3 (FP dye assignment inferred from EMSA)", "value": "232 ± 42", "unit": "nM"}]}, {"binder": "B2", "values": [{"measurement": "Kd", "setting": "HpParB (HpSpo0J) [2]; label: 5' Cy5 in EMSA, FP label Cy3 or Cy5 not specified per DNA", "value": "145 ± 28.8", "unit": "nM"}, {"measurement": "binding result", "setting": "[3]", "value": "binds"}, {"measurement": "Kd", "setting": "HpParA (HpSoj)", "value": "117 ± 15.2", "unit": "nM"}, {"measurement": "Kd", "setting": "HpParAD41A", "value": "149 ± 18.1", "unit": "nM"}, {"measurement": "binding result", "setting": "[4]", "value": "binds"}]}, {"binder": "B3", "values": [{"measurement": "Kd", "setting": "[5]", "value": "5300 ± 1100", "unit": "nM"}]}, {"binder": "B4", "values": [{"measurement": "binding result", "setting": "Ct-HpParB", "value": "no binding"}]}]}
